PMC7870818, “SPRTN protease-cleaved MRE11 decreases DNA repair and radiosensitises cancer cells”

What was measured:
[1] = target: T1, FL-MRE11 (human, UniProt P49959 1-708); assay: fluorescence polarization; no metal listed in buffer; apparent Kd, n=1; 10 mM Tris pH 8.0, 25 mM NaCl, 0.1% Tween20, 2 mM DTT; 10 nM DNA; temperature not stated, measured immediately; conditions: protein: recombinant; tags: His tag (pNIC28-Bsa4), TEV protease treated; chain copies: 2; label: 5' FITC on TP423; 34 bp duplex (S1[1-34] with S2[1-34]); 3' overhangs 16 nt (S1) and 15 nt (S2)
T1 sequence: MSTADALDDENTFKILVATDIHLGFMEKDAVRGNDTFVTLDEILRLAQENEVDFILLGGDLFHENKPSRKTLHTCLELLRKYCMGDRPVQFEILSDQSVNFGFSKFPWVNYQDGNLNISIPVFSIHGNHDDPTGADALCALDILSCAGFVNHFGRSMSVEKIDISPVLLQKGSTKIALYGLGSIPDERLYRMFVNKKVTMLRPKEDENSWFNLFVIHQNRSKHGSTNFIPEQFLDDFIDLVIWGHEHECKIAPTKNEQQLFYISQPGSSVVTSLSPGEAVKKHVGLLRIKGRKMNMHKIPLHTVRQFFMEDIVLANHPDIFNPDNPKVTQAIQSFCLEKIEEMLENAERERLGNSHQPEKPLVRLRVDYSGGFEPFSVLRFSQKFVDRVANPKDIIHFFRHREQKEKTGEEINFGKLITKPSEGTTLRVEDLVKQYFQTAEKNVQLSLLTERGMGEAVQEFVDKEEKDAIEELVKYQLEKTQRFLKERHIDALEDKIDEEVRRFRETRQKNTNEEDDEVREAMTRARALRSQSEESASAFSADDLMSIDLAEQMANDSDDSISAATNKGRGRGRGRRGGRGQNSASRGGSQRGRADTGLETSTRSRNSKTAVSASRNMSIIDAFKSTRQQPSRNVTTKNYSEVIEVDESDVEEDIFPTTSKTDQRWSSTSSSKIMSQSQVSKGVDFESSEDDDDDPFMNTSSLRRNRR

[2] = target: T2, TR-MRE11 (human, UniProt P49959 1-568, del569-708); assay: fluorescence polarization; no metal listed in buffer; apparent Kd, n=1; 7-fold lower affinity than FL; 10 mM Tris pH 8.0, 25 mM NaCl, 0.1% Tween20, 2 mM DTT; 10 nM DNA; temperature not stated, measured immediately; conditions: protein: recombinant; tags: His-SUMO tag removed by SUMO protease; chain copies: 2; label: 5' FITC on TP423; 34 bp duplex (S1[1-34] with S2[1-34]); 3' overhangs 16 nt (S1) and 15 nt (S2)
T2 sequence: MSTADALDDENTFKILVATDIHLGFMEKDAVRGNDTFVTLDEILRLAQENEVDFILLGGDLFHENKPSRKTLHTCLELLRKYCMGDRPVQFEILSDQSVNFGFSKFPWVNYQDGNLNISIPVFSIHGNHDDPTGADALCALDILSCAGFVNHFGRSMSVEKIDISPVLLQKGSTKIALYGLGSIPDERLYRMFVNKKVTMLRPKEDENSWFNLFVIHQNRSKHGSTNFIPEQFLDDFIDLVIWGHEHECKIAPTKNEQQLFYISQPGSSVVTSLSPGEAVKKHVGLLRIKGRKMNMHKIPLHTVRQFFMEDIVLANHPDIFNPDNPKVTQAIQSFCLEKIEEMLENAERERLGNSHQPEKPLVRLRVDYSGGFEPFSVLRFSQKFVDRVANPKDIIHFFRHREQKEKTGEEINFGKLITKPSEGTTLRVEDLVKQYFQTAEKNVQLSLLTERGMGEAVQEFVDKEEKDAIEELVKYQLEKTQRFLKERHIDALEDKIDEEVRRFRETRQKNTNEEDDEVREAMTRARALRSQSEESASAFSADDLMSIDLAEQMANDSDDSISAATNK

B1: TP423/TP424 3'-overhang duplex (dsDNA)
DNA 1: CTGCAGGGTTTTTGTTCCAGTCTGTAGCACTGTGTAAGACAGGCCAGATC
DNA 2: CACAGTGCTACAGACTGGAACAAAAACCCTGCAGTACTCTACTCATCTC
[1]
  Kd: 34.6 nM
[2]
  Kd: 242 nM
